Drawing on patent publication US20240309116A1 (ZHEJIANG SHIMAI PHARMACEUTICAL, published 2024), this text covers EC50 for four molecules.

Test [1] concerns the target T1, recombinant human ROR1 (full-length extracellular domain) (human, UniProt Q01973 30-406).
T1 construct: extracellular domain; Bought protein; also called human ROR1 protein; full extracellular domain
Put plainly: ELISA, ROR1 coated on the plate, Fab detected with HRP anti-FLAG antibody. The procedure: The hexahistidine-tagged Fabs 2H3 and 3A3 were expressed in E. coli strain HB2151 and purified from the soluble fraction of periplasm by using the Ni-NTA resin. Then ELISA was performed by using standard protocols to measure binding affinity to recombinant human ROR1 (full-length extracellular domain). Briefly, the recombinant human ROR1 (ACROBiosystems) was coated on Corning EIA/RIA high-binding 96-well plates (Corning Inc.) at 50 ng per well overnight at 4° C. and blocked with 3% nonfat milk in PBS (pH7.4). Fivefold serially diluted antibodies were added and incubated at room temperature for 2 h. The plates were washed with PBS containing 0.05% Tween 20. Bound antibodies were detected by HRP-conjugated anti-FLAG tag antibody (Sino Biological). The assay was developed at room temperature with TMB substrate (Solarbio) and OD value was measured at 450 nm with a microplate reader.
(In general: An ELISA detects its analyte on a solid surface through an enzyme-linked reagent.)

Test [2] addresses T1, recombinant human ROR1 (full-length …). The experiment in a line: ELISA, antigen coated on the plate, biotinylated antibody detected with HRP streptavidin. The procedure: (§1) ELISA was performed according to standard protocols, to determine binding affinity of anti-ROR1 mAB 2H3 and 3A3 to full extracellular domain and individual extracellular Ig-like domain, frizzled domain, and kringle domain of human ROR1. Briefly, recombinant human ROR1 (AcroBiosystems) were coated on Corning EIA/RIA high-binding 96-well plates (Corning Inc.) at 50 ng per well overnight at 4° C. and blocked with 3% nonfat milk in PBS (pH7.4). Fivefold serially diluted biotinylated antibodies were added and incubated at room temperature for 2 h. The plates were washed with PBS containing 0.05% Tween 20. Bound antibodies were detected by HRP-conjugated streptavidin (Sino Biological). The assay was developed at room temperature with TMB substrate (Solarbio) and monitored at 450 nm with a microplate reader. The half-maximal binding (EC₅₀) was calculated by fitting the data to the Langmuir adsorption isotherm.

Test [3] deals with T2, human/Cynomolgus/Rhesus macaque ROR1 (308-395, Kringle domain) protein (human/Cynomolgus/Rhesus macaque, UniProt Q01973 308-395).
T2 construct: range 308-395; Bought protein; also called kringle domain of ROR1
Described as above. The procedure: as §1

For test [4], the target named is T3, human ROR1 (39-151, Ig-like domain) protein (human, UniProt Q01973 39-151).
T3 construct: range 39-151; Bought protein; also called Ig-like domain of ROR1
The description is as above. The procedure: as §1

One may read the EC50 as the midpoint of the concentration-response curve.

T1 sequence (Q01973 30-406): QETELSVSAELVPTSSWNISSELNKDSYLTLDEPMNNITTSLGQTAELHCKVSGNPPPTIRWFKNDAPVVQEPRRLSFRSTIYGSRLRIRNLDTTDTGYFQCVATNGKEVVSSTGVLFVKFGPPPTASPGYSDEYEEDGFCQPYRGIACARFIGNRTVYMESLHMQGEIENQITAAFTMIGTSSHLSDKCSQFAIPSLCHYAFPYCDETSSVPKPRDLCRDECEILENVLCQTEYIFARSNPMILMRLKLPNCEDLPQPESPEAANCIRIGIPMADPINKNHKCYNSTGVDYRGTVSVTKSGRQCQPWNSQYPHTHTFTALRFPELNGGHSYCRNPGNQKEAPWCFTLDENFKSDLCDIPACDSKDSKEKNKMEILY
T2 sequence (Q01973 308-395 limits assumed, form in doubt): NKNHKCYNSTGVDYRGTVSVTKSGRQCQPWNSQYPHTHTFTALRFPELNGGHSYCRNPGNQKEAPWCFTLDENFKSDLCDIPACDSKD
T3 sequence (Q01973 39-151 limits assumed, form in doubt): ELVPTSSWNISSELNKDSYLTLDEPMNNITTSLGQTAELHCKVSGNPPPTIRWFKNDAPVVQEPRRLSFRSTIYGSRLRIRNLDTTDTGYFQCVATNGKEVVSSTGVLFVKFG

B1: anti-ROR1 2H3 Fab (Fab, V domains shown)
VH: QVQLVQSGAEVKKTGSSVKVSCKASGYTFTYRYLHWVRQAPGQALEWMGWITPFNGNTNYAQKFQDRVTITRDRSMSTAYMELSSLRSEDTAMYYCARSGPRGDYVLDYWGQGTLVTVSS
VL: EIVLTQSPATLSLSPGERATLSCRASQSVSSYLAWYQQKPGQAPRLLIYDASNRATGIPARFSGSGSGTDFTLTISSLEPEDFAVYYCQQRSNWPLTFGGGTKVEIK
notes: Human Fab from a phage library, kappa light chain, hexahistidine-tagged, expressed in E. coli HB2151; also called Fab clone 2H3
As to B1, the EC50 in test [1] was around 16 nM.

B2: anti-ROR1 monoclonal antibody 2H3 (antibody, V domains shown)
VH: B1 VH
VL: EIVLTQSPATLSLSPGERATLSCRASQSVSSYLAWYQQKPGQAPRLLIYDASNRATGIPARFSGSGSGTDFTLTISSLEPEDFAVYYCQQRSNWPLTFGGGTKVEIKR
notes: Intact human IgG1 kappa (Fd of the Fab fused to human IgG1 Fc), about 150 kDa non-reduced; also called 2H3 mAb; 2H3 Mab
Consider B2, for which the EC50 came out at 0.2 nM in test [2] and 1.2 nM in test [3].

B3: anti-ROR1 3A3 Fab (Fab, V domains shown)
VH: EVQLVESGGGVVQPGRSLRLSCAASGFTFSSYGMHWVRQAPGKGLEWVAVISYDGSNKYYADSVKGRFTISRDNSKNTLYLQMNSLRAEDTAVYYCAKDLDYSLWFDPWGQGTLVTVSS
VL: DVVMTQSPLSLPVTPGEPASISCRSSQSLLQSNGYNYVEWFLQKPGQSPQLLIYLGSYRASGVPDRFSGSGSGTDFTLKISRVEAEDVGVYYCMQGTHWPLFTFGPGTKVDIK
notes: Human Fab from a phage library, kappa light chain, hexahistidine-tagged, expressed in E. coli HB2151; detected with an anti-FLAG antibody; also called Fab clone 3A3
For the molecule B3, the EC50 in test [1] was around 36 nM.

B4: anti-ROR1 monoclonal antibody 3A3 (antibody, V domains shown)
VH: B3 VH
VL: DVVMTQSPLSLPVTPGEPASISCRSSQSLLQSNGYNYVEWFLQKPGQSPQLLIYLGSYRASGVPDRFSGSGSGTDFTLKISRVEAEDVGVYYCMQGTHWPLFTFGPGTKVDIKR
notes: Intact human IgG1 kappa (Fd of the Fab fused to human IgG1 Fc), about 150 kDa non-reduced; also called 3A3 mAb; 3A3 Mab
B4: the EC50 in test [2] came out at 0.18 nM; in test [4], 3.1 nM.
